For orientation: Kd means the constant that tells how readily two partners part at equilibrium. Read a low Kd as tighter binding. As a reminder, the koff is the rate constant with which the complex falls apart. High values mean a short-lived complex, low ones a long-lived complex. The term kon denotes the second-order rate constant of association. Read a low kon as slow association. Usually IC50 stands for the concentration at which inhibition is half-maximal. For orientation: EC50 means the concentration needed to bring the measured effect to its halfway point. Low values mean greater potency, high ones weaker potency.

For assay [1], the target named is T1, extracellular domain of SIRPα v1-DLN (e.g. SIRPα1) (human, UniProt P78324 31-373).
T1 construct: also called hSIRPα - ECD (v1)
In words: SPR Biacore T200, antibody captured on Protein A chip. A general note: SPR reads the build-up and loss of mass on a sensor chip optically.

Assay [2] has as its target T2, recombinant SIRPα protein (Novoprotein, catalog number C385) (human, UniProt P78324 31-370).
T2 construct: also called human recombinant SIRPα protein; SIRPα antigen
In words: SPR Biacore T200 competition in solution, SIRPα 20 nM, competitor immobilized CD47-ECD.

The target in assay [3] is T3, rat SIRPα on CHO-K1 cells (rat, UniProt P97710 32-509).
T3 construct: whole, on cells; also called rat SIRPα-CHO-K1
T3 sequence (looked up): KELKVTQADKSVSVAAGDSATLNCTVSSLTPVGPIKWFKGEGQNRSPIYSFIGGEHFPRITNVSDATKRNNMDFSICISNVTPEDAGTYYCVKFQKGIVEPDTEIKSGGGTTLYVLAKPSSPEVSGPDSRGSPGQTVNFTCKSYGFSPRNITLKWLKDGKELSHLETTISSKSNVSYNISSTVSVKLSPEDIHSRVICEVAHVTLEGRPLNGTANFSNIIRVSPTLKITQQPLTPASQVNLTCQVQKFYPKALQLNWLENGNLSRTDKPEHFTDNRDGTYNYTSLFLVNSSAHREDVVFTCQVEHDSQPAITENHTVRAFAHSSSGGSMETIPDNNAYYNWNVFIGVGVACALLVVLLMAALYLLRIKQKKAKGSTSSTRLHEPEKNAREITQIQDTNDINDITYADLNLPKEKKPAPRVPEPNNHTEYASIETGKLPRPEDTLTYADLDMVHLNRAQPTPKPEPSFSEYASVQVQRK
In words: flow cytometry on Rat SIRPα-CHO-K1 cells. (A flow cytometer gives signals particle by particle.)

For the next assay, the target named is T4, human SIRPα on cells (human, UniProt P78324 31-504).
T4 construct: whole, on cells; also called human SIRPα-CHO; Hu SIRPα-CHO-K1
In words: flow cytometry, human SIRPα-CHO cells, anti-human IgG-AF647 detection.

Assay [4] concerns the target T1, extracellular domain of SIRPα v1-DLN …. In words: SPR Biacore T200, antibody on Protein A chip, 1:1 Langmuir fit; comparative Biacore study of Table 30, a separate experiment from Table 15.
In the next assay the target is T5, mouse SIRPα on cells (mouse, UniProt P97797 32-513).
T5 construct: whole, on cells; also called mouse SIRPα-CHO-K1; Ms SIRPα-CHO-K1
T5 sequence (looked up): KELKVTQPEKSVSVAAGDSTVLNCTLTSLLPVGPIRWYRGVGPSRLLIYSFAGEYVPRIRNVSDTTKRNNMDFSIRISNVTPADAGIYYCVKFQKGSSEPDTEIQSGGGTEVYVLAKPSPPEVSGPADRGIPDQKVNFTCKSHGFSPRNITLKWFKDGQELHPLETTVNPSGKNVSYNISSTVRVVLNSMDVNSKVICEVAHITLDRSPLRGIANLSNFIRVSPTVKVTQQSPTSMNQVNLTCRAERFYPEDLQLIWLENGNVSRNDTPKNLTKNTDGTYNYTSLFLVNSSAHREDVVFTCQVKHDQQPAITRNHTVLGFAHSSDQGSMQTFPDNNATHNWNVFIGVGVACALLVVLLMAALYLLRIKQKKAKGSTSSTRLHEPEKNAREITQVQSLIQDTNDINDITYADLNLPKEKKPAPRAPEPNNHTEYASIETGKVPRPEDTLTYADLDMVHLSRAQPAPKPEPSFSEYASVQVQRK
In words: flow cytometry on Mouse SIRPα-CHO-K1 cells.

For assay [5], the target named is T6, SIRPβ extracellular domain (human, UniProt O00241 30-371).
T6 construct: also called hSIRPβ - ECD
T6 chain: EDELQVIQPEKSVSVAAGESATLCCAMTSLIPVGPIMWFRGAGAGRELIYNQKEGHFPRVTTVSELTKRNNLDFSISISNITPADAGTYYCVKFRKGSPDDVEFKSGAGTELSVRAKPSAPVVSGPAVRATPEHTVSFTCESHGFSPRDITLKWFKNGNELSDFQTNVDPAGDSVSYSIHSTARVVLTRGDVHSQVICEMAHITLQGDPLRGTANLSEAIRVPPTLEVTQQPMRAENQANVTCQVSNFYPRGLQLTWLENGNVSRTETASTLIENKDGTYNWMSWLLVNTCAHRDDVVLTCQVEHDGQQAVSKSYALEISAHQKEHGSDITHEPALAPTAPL
In words: SPR Biacore T200, antibody on Protein A chip, 1:1 Langmuir fit.

The target of assay [6] is T7, SIRPγ extracellular domain (human, UniProt Q9P1W8 29-360).
T7 construct: also called hSIRPγ - ECD
The description is as above.

B1: SIRPAB-11-K322A (antibody, human IgG1, kappa)
light: DIQMTQSPSSVSASVGDRVTITCRASQGISSWLAWYQQKPGKAPKLLIYAASNLQSGVPSRFSGSGSGTDFTLTISSLQPEDFATYYCQQGASFPITFGGGTKVEIKRTVAAPSVFIFPPSDEQLKSGTASVVCLLNNFYPREAKVQWKVDNALQSGNSQESVTEQDSKDSTYSLSSTLTLSKADYEKHKVYACEVTHQGLSSPVTKSFNRGEC
heavy: not shown
notes: human IgG1 with K322A (EU numbering); also called SIRPAB-11-IgG1-K322A; SIRPAB-11-K322A-AlexaFluor647
Take B1: the dissociation constant (Kd) in assay [1] worked out at 0.0152 nM; in assay [4], 0.0923 nM; in assay [5], 0.38 nM; in assay [6], 0.0632 nM. This molecule displayed a dissociation rate constant (koff) in assay [1] of 0.000118 s⁻¹. In assay [1], the on-rate constant (kon) was 7.75e+06 M⁻¹ s⁻¹. Moreover, in assay [2], the half-maximal inhibitory concentration (IC50) is 12.6 nM. In addition, the binding result (in assay [3]; with mouse SIRPα on cells) was “no binding (tested: 100 nM (Log nM 2))” in each case. Also, the concentration giving a half-maximal response (EC50) with human SIRPα on cells was 2.06 nM.
